Among the data in article PMC10858260 are Kd values, retold here.

For orientation: Kd means the free concentration of one partner at which half of the binding sites on the other are occupied at equilibrium, for simple one-to-one binding. Low values mean a tighter complex, high ones a looser complex.

For data set [1], the system named is ApsR-P (phosphorylated with acetyl-phosphate) (Lacticaseibacillus paracasei BL23). Briefly: BLI. The settings on record: BLI (BLITz, streptavidin sensors, DNA immobilized): 50 mM Tris-HCl pH 7.4, 150 mM NaCl, 0.1% Tween 20; protein preincubated 30 min with 50 mM phosphodonor and ….
Data set [2] has as its system PsdR-P (phosphorylated with ammonium phosphoramidate) (Lacticaseibacillus paracasei BL23). Briefly: BLI. The conditions noted are these: BLI (BLITz, streptavidin sensors, DNA immobilized): 50 mM Tris-HCl pH 7.4, 150 mM NaCl, 0.1% Tween 20; protein preincubated 30 min with 50 mM phosphodonor and ….

Take “CAATCATCTCGCAAACTTACATCACCTTACAAAAAGGTCAGAAAGGGTGCGAGGGGCTTGTAGATTTCCTATAATGAATAGGAATATAGACACGGAGGAC (double strand) [PmprF]”: the values for the Kd in data set [1] and in data set [2] were 26.6 µM and 0.0948 µM, respectively.

Regarding “GGTAAAGAAAGACTAAAGCAGCTTACAAAGCCGTAAGTTACAAACAACCATCCGTTAGGCCATTATCAGGAAAAAGGCAGCCTAACCCGCTATCATAAAG (double strand) [PderA]”, the Kd was 4.74 µM in data set [1] and 0.172 µM in data set [2].

For the sequence “GTAAGCTACCTTACCAGCTTGTAAGCAACTACGAATCACTGTAAGTAGGCATGGGGCATCATCCCCGCTAAGCTAATAAATGAAAGGGGACGATCACATG (double strand) [PpsdA]”, the Kd was found to be 108 µM in data set [1] and 0.116 µM in data set [2].

On to “TCACGCTTCTCATATTACGAAACTGTTAGCTCATTGTTACGCAATTCGTTGGCGTCATTTTTTCTGAAAACCTATAATGAATGTGTAAATAAAAACGTGG (double strand) [Pdlt]”, for which the Kd amounted to 7.47 µM in data set [1] and 0.1 µM in data set [2].
